Results taken from article PMC12241602.

Key:
[1] = target: His6-MadB (class I lantibiotic dehydratase MadB) (Clostridium sp. Maddingley); assay: cryo-EM structure; single particle cryo-EM of purified apo MadB and of MadB with MadL3, C2 symmetry imposed
[2] = target: His6-MadB (class I lantibiotic dehydratase MadB) (Clostridium sp. Maddingley); assay: SEC-MALS; 100 uL of 20 uM MadB on Superdex 200 10/300 Increase, 50 mM HEPES pH 8.0, 200 mM NaCl, 0.5 mL/min
[3] = target: His6-MadB (class I lantibiotic dehydratase MadB) (Clostridium sp. Maddingley); assay: nanoDSF; 2 uM His6-MadB with or without 10 uM ligand peptide, 10 min at room temperature, 50 mM HEPES, 500 mM NaCl, pH 7.5, ramp 1 °C/min from 25 to 95 °C, intrinsic fluorescence 330/350 nm

stoichiometry N [1]	stoichiometry N [2]	Substance	Tm shift [3]
2	2	His6-MadB (class I lantibiotic dehydratase MadB) (enzyme)	–
–	–	MadL1 (isolated leader peptide of maddinglicin A)	1.8 °C
